Measurements as given in article doi:10.1101/2025.10.13.682107, “Oxidative stress sensing by the translation elongation machinery promotes production of detoxifying selenoproteins” (bioRxiv, 2025).

B1: EEF1D, endogenous (natural protein, human (endogenous in HEK293T), UniProt P29692 1-281, looked up)
chain: MATNFLAHEKIWFDKFKYDDAERRFYEQMNGPVAGASRQENGASVILRDIARARENIQKSLAGSSGPGASSGTSGDHGELVVRIASLEVENQSLRGVVQELQQAISKLEARLNVLEKSSPGHRATAPQTQHVSPMRQVEPPAKKPATPAEDDEDDDIDLFGSDNEEEDKEAAQLREERLRQYAEKKAKKPALVAKSSILLDVKPWDDETDMAQLEACVRSIQLDGLVWGASKLVPVGYGIRKLQIQCVVEDDKVGTDLLEEEITKFEEHVQSVDIAAFNKI
notes: EEF1D (guanine nucleotide exchange factor subunit of EEF1H), human, endogenous in HEK293T; source: endogenous, HEK293T lysate
B2: valine tRNA synthase (VARS), endogenous (enzyme, human (endogenous in HEK293T), UniProt P26640 1-1264, looked up)
chain: MSTLYVSPHPDAFPSLRALIAARYGEAGEGPGWGGAHPRICLQPPPTSRTPFPPPRLPALEQGPGGLWVWGATAVAQLLWPAGLGGPGGSRAAVLVQQWVSYADTELIPAACGATLPALGLRSSAQDPQAVLGALGRALSPLEEWLRLHTYLAGEAPTLADLAAVTALLLPFRYVLDPPARRIWNNVTRWFVTCVRQPEFRAVLGEVVLYSGARPLSHQPGPEAPALPKTAAQLKKEAKKREKLEKFQQKQKIQQQQPPPGEKKPKPEKREKRDPGVITYDLPTPPGEKKDVSGPMPDSYSPRYVEAAWYPWWEQQGFFKPEYGRPNVSAANPRGVFMMCIPPPNVTGSLHLGHALTNAIQDSLTRWHRMRGETTLWNPGCDHAGIATQVVVEKKLWREQGLSRHQLGREAFLQEVWKWKEEKGDRIYHQLKKLGSSLDWDRACFTMDPKLSAAVTEAFVRLHEEGIIYRSTRLVNWSCTLNSAISDIEVDKKELTGRTLLSVPGYKEKVEFGVLVSFAYKVQGSDSDEEVVVATTRIETMLGDVAVAVHPKDTRYQHLKGKNVIHPFLSRSLPIVFDEFVDMDFGTGAVKITPAHDQNDYEVGQRHGLEAISIMDSRGALINVPPPFLGLPRFEARKAVLVALKERGLFRGIEDNPMVVPLCNRSKDVVEPLLRPQWYVRCGEMAQAASAAVTRGDLRILPEAHQRTWHAWMDNIREWCISRQLWWGHRIPAYFVTVSDPAVPPGEDPDGRYWVSGRNEAEAREKAAKEFGVSPDKISLQQDEDVLDTWFSSGLFPLSILGWPNQSEDLSVFYPGTLLETGHDILFFWVARMVMLGLKLTGRLPFREVYLHAIVRDAHGRKMSKSLGNVIDPLDVIYGISLQGLHNQLLNSNLDPSEVEKAKEGQKADFPAGIPECGTDALRFGLCAYMSQGRDINLDVNRILGYRHFCNKLWNATKFALRGLGKGFVPSPTSQPGGHESLVDRWIRSRLTEAVRLSNQGFQAYDFPAVTTAQYSFWLYELCDVYLECLKPVLNGVDQVAAECARQTLYTCLDVGLRLLSPFMPFVTEELFQRLPRRMPQAPPSLCVTPYPEPSECSWKDPEAEAALELALSITRAVRSLRADYNLTRIRPDCFLEVADEATGALASAVSGYVQALASAGVVAVLALGAPAPQGCAVALASDRCSIHLQLQGLVDPARELGKLQAKRVEAQRQAQRLRERRAASGYPVKVPLEVQEADEAKLQQTEAELRKVDEAIALFQKML
notes: valine tRNA synthase (VARS), human, endogenous in HEK293T; source: endogenous, HEK293T lysate
B3: EEF1B, endogenous (natural protein, human (endogenous in HEK293T), UniProt P24534 1-225, looked up)
chain: MGFGDLKSPAGLQVLNDYLADKSYIEGYVPSQADVAVFEAVSSPPPADLCHALRWYNHIKSYEKEKASLPGVKKALGKYGPADVEDTTGSGATDSKDDDDIDLFGSDDEEESEEAKRLREERLAQYESKKAKKPALVAKSSILLDVKPWDDETDMAKLEECVRSIQADGLVWGSSKLVPVGYGIKKLQIQCVVEDDKVGTDMLEEQITAFEDYVQSMDVAAFNKI
notes: EEF1B (guanine nucleotide exchange factor subunit of EEF1H), human, endogenous in HEK293T; source: endogenous, HEK293T lysate

Legend:
[1] = biological target: EEF1G (eukaryotic elongation factor 1 subunit gamma), endogenous (human (endogenous in HEK293T)) (UniProt P26641); assay: mass photometry; EEF1S complex recovered by glutathione-Sepharose from HEK293T lysate and run on SEC (Superdex 200); stoichiometry from the mass (~270 kDa) and Coomassie staining; complex formed in cells and co-purified
Sequence of EEF1G (eukaryotic elongation factor 1 subunit gamma), endogenous (human (endogenous in HEK293T)) (P26641 whole entry): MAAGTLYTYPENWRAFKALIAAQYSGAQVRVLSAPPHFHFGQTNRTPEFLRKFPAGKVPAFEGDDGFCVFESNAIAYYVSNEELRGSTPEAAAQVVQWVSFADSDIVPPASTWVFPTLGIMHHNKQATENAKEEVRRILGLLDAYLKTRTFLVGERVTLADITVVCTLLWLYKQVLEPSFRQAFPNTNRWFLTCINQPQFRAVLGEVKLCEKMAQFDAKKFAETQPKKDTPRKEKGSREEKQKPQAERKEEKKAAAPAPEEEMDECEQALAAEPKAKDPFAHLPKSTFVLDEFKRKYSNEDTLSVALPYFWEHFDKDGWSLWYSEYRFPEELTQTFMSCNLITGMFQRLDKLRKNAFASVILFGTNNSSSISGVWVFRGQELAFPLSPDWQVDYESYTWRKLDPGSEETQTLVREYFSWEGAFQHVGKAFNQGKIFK

[2] = biological target: endogenously Strep-tagged EEF1G (human (endogenous in HEK293T)) (UniProt P26641); assay: mass photometry; EEF1H complex recovered by affinity purification of endogenous strep-tagged EEF1G from HEK293T lysates; stoichiometry predicted from molecular weight of components and Coomassie staining; complex formed in cells and co-purified
Sequence of endogenously Strep-tagged EEF1G (human (endogenous in HEK293T)) (P26641 whole entry): as above

[3] = biological target: T1, endogenously Strep-tagged EEF1G (human (endogenous in HEK293T), UniProt P26641 1-437); assay: as above; conditions: partners not purified
T1 construct: EEF1G, human, endogenous locus of HEK293T edited to carry an internal Twin-Strep tag in the unstructured region between the GST and C-terminal domains; also called strep-EEF1G; source: endogenous locus tagged by CRISPR-Cas9 knock-in, HEK293T; not shown: Twin-Strep, internal (in the unstructured region between the GST and C-terminal domains), kept
T1 sequence (P26641 whole entry, the tested form may be a part): as the sequence (P26641 whole entry) above

[4] = biological target: T2, EEF1G (eukaryotic elongation factor 1 subunit gamma), endogenous (human (endogenous in HEK293T), UniProt P26641 1-437); assay: mass photometry; EEF1S complex recovered by glutathione-Sepharose from HEK293T lysate and run on SEC (Superdex 200); stoichiometry from the mass (~270 kDa) and Coomassie staining; complex formed in cells and co-purified; conditions: partners not purified
T2 construct: EEF1G, human, endogenous untagged protein in HEK293T lysate, recovered on glutathione-Sepharose; source: endogenous, HEK293T lysate
T2 sequence (P26641 whole entry): as above

| Molecule | stoichiometry N [1] | copies in the EEF1H complex (with six copies of EEF1G) [2] [copies] | copies in the EEF1H complex (with six copies of EEF1G) [3] [copies] | stoichiometry N [4] |
| --- | --- | --- | --- | --- |
| EEF1A, endogenous (from UniProt P68104 1-462) (natural protein) | 1 | 6 | – | – |
| B1 | – | – | ~4 | – |
| B2 | – | – | ~2 | – |
| B3 | – | – | ~4 | ~1 |
